Data as given in paper PMC4641749 (Molecular microbiology, 2015).
Like-named read-outs stand apart in the source and are kept apart here.

Experiments:
[1] = molecular target: the molecule itself; assay: sedimentation assay of polymers
[2] = molecular target: the molecule itself; assay: sedimentation assay of polymers; remark: listed apart in the source

Protein	binding result [1]	binding result [2]
FtsZ (wild type, Escherichia coli) (natural protein, E. coli, UniProt P0A9A6 1-383, looked up) MFEPMELTNDAVIKVIGVGGGGGNAVEHMVRERIEGVEFFAVNTDAQALRKTAVGQTIQIGSGITKGLGAGANPEVGRNAADEDRDALRAALEGADMVFIAAGMGGGTGTGAAPVVAEVAKDLGILTVAVVTKPFNFEGKKRMAFAEQGITELSKHVDSLITIPNDKLLKVLGRGISLLDAFGAANDVLKGAVQGIAELITRPGLMNVDFADVRTVMSEMGYAMMGSGVASGEDRAEEAAEMAISSPLLEDIDLSGARGVLVNITAGFDLRLDEFETVGNTIRAFASDNATVVIGTSLDPDMNDELRVTVVATGIGMDKRPEITLVTNKQVQQPVMDRYQQHGMAPLTQEQKPVAKVVNDNAPQTAKEPDYLDIPAFLRKQAD	binds	
FtsZ_(L169R) (Escherichia coli FtsZ with the L169R lesion) (natural protein, E. coli, UniProt P0A9A6 1-383, looked up) MFEPMELTNDAVIKVIGVGGGGGNAVEHMVRERIEGVEFFAVNTDAQALRKTAVGQTIQIGSGITKGLGAGANPEVGRNAADEDRDALRAALEGADMVFIAAGMGGGTGTGAAPVVAEVAKDLGILTVAVVTKPFNFEGKKRMAFAEQGITELSKHVDSLITIPNDKLRKVLGRGISLLDAFGAANDVLKGAVQGIAELITRPGLMNVDFADVRTVMSEMGYAMMGSGVASGEDRAEEAAEMAISSPLLEDIDLSGARGVLVNITAGFDLRLDEFETVGNTIRAFASDNATVVIGTSLDPDMNDELRVTVVATGIGMDKRPEITLVTNKQVQQPVMDRYQQHGMAPLTQEQKPVAKVVNDNAPQTAKEPDYLDIPAFLRKQAD		binds
